B1: 5-hydroxytryptamine receptor 2C (Homo sapiens), P28335-1 (parent)
chain: MVNLRNAVHSFLVHLIGLLVWQSDISVSPVAAIVTDIFNTSDGGRFKFPDGVQNWPALSIVIIIIMTIGGNILVIMAVSMEKKLHNATNYFLMSLAIADMLVGLLVMPLSLLAILYDYVWPLPRYLCPVWISLDVLFSTASIMHLCAISLDRYVAIRNPIEHSRFNSRTKAIMKIAIVWAISIGVSVPIPVIGLRDEEKVFVNNTTCVLNDPNFVLIGSFVAFFIPLTIMVITYCLTIYVLRRQALMLLHGHTEEPPGLSLDFLKCCKRNTAEEENSANPNQDQNARRRKKKERRPRGTMQAINNERKASKVLGIVFFVFLIMWCPFFITNILSVLCEKSCNQKLMEKLLNVFVWIGYVCSGINPLVYTLFNKIYRRAFSNYLRCNYKVEKKPPVRQIPRVAATALSGRELNVNIYRHTNEPVIEKASDNEPGIEMQVENLELPVNPSSVVSERISSV

Variants of: B1
Conditions: with GHSR

effect of a mutation on the interaction	Variant
increasing interaction strength	I156V;N158S;I160V

Reference: IntAct's records for PubMed 25727097
